Earlier results in PMC3750086.

Key:
[1] = target: PDL1 (Homo sapiens) (UniProt Q9NZQ7)
[2] = target: CD28 (Homo sapiens) (UniProt P10747)

Sequence of UniProt Q9NZQ7 (Q9NZQ7 19-238): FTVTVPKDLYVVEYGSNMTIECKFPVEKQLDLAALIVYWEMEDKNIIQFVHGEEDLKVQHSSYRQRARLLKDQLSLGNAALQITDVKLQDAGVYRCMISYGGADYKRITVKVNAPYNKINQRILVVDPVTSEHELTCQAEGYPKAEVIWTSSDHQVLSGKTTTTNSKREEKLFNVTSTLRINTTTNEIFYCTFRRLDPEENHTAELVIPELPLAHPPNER

Kd [1]: 1400 nM | Kd [2]: 4000 nM
Substance: CD80 (from UniProt P33681)
